Source: patent US9663800B2, “Alkane exporter and its use” (Nanyang Technological University, priority 2012, dated 2017)

B1: ABC2: Y. lipolytica ABC transporter, SEQ ID NO. 4, GenBank CAG82364, heterologously expressed in S. cerevisiae (protein, listed as Yarrowia lipolytica)
chain: MEQTPPDYTGLDKNIDAEVRSIAESMYQTRREGVNDSDTDEELQRTNTIQPNLNVNPFLDTSDPQLDPLSKEFNSRKWIKTILGLKARFGNSRSISAGVSFKNLSAFGYGGGNDYQKTFTNSVMAIGPMIKKVLGGNKGSEVQILRHFDGLVRAGETCVVLGRPGSGCTTFLKSVACETYGFHLGEKSEWNYQGVPRDVMQKNARGEIVYNAEVDVHFPHLTVGDTLLFAALARTPQNRLEGVSREQHATHVRDVSMAMLGLTHTMDTKVGNDFVRGVSGGERKRVSIAESVVCGAPLQCWDNSTRGLDAANATEFIRSLRLSAEMTDASMFVSLYQASQEAYDMFDKVCVLYEGRQIYFGKTTEAKQFFLDLGFDCADRQTTGDFLTSLTNPIERIIRPGWESRVPRTPDDFEKCWLESEARQLLLQDIDEFNNEFVLGGPALDNFMGLRKDAQAKHTRVQSPYTISWPMQTRLCLWRGFLRIKGDMSTDIATVFGNFVMALVLSSMFYNMPQTTESFFSRGALLFFAILINAFASILEILSLYEQRPIVDKQNRYAMYHPAADALAAIITTFPTKTLTLVSVNLTIYFMTNLRREVGPFFIFFLFSLLCTMAMSMIFRTIGSVTKTLEQALAPASIIILALVIYTGFSLPISYMHGWARWINWLNPVAYGFEAVMVNEFRNREYECSMFVPSGGAYENVSLDYRSCAAVGAEPGLRFVNGDAFINQSYEYYNAHLWRNMGILFGFIIFFGAFYLFAVEYIQGAKSKGEVLVFRKEHIKKQRKEKNGDIESGVTMAGEKGTQESESSNTSINLQAQRGIYQWKDVCYDIKVKDGERRLLDHVDGFVKPGTLTALMGASGAGKTTLLDVLADRKSTGVVTGEMLVNGEHRDGSFQRKTGYVQQQDLHTATATVRESLEFSALLRQPSSIPESEKLAYVDEVIRILEMETYADAVVGVPGEGLNVEQRKRLTIGVELAAKPELLLFLDEPTSGLDSQTAWSIVKLLKKLAANGQAILCTIHQPSAILFQEFDRLLFLASGGRTVYYGDIGPQSSILTEYFERNGADPCPKQGNPAEWMLEVIGAAPGSTAKRDWPVVWAESPERAAKREELDEMARTVERVQTNTTERDSTGYSDSDQFAVGWWTQFKIVSKRQFQALWRTPSYLWSKVFLCAASAIFIGFSFFKAPNDMQGLQNKMFSFFMLFLIFNTVVEQIIPQFDKMRELYEARERSSKTYSWQVFMGSNMVVELIWQFFMGVIVFFCFYYPVGFQWTAEYNDSVHERGGLFFLYVLLLFLYNSTFAHMLIAGIDNKDTAAQIGTLLFTLMLLFCGVLATKEQMPGFWVFMYRVSPLTYFVGGMMATGMGRAPVTCSPHELVRFPAVPGKSCGEYMDGFISALGDSAGYLVSSSADMCEYCPMKSSDQFLDSVDISYTQRWRNWGILWAYPLFNIFAAFALYYFFRVPKKSKAQKA
B2: ABC3: Y. lipolytica ABC transporter, SEQ ID NO. 5, GenBank CAG82646, heterologously expressed in S. cerevisiae (protein, listed as Yarrowia lipolytica)
chain: MTDPVPITQDPTIYSSQQDAEIRSLAESIHSQHSNNSNNSTELTNPYVDTSDPELDPWSGQFNSRKWSRTILGLKRRYGTSKEITAGVSFKNLGAYGYGGGADYQKTVANAVLGLEGVVRTLFHLEKKEDKVQILSDFNGVLWPGETCVVLGRPGSGCTTLLKSIACETYGFQLDKETEWNYQGIPRKIMQKTCRGEIVYNAEVDVHFPHLTVGDTLMFASLARTPQNRFDGVTREQYAKHTRDVTMASLGLSHTLDTKVGNDFVRGVSGGERKRVSIAESIVCGSPLQCWDNSTRGLDAATATEFLRWLRHSAELTGASMFVSLYQASQEAYELFDKVTVLYEGQQIYFGPGEQAKQYFEEMGFECPHRQTTGDFLTSITSPAERIVAPGFEGKTPRTASEFAERWRQSQAYANLQEEIERFNTEFPVGGNRVADIMELKQEKQSDHIKVSSPYTISIPMQVKLCLTRGFQRLRGDLSMALTTVLGNFVVALILSSMFYNMPEDTSSFFSRGALLFFAMLMNAMSSVLEIIVLYELRPIVEKHQRYAMYHPFCEALASIICDFPTKFLTMLCVNVTLYFMSNLRREAGPFFIFFLFTLLCVLAMSMIFRTIAAVTKTLQQALAPAAVIILALIIYTGFTLPISYMRGWARWINYIDPIAYGFEAVMVNEFRNREFPCALFIPQQSTYDQLGSPYQGCMAVGAKPGERFVNGDRYLEMAFDYSQAHLWRNLGIMFGFILFFAFTYLTAVEFIQSAKSKGEVLVFLRSSLKQRKKRAHLMDVEANAEKVGAAQDREILVQQEEGQQEETSSCTPSDSTPKDIFQWKDVCYDIKVKGGEKRLLDNVDGWVKPGTLTALMGCSGAGKTTLLDVLADRKATGVITGDMRVNGQKRDASFQRKTGYVQQQDLHTATSTVREALEFSALLRQPSNVPKAEKIAYVDEVIDILEMQAYADAVVGVPGEGLNVEQRKRLTIGVELAAKPELLLFLDEPTSGLDSQTAWSIICLLKKLANRGQAILCTIHQPSAILFQEFDRLLFMTLGGKTVYYGDIGANSSALINYFESKGADPCPEEANPAEWMLAAIGAAPGSIAKHDWAVVWNESEERARERDLLDKMAEELAAQSTHDEKNELVTSKSVGSSQTSSSSYSAKSQYATSQATQLYYLTKRLWTYYWRSPRYIWSKLLMSIASALFIGFSYYKASQDIQGLQNQMFAFFMLFLIFVIIMVQILPHFVAQRELYEARERSSMAYSWQAFMGSNILVELPWQTLVAVLVFFCFYYPIGLQNNATGHLGERGALFFLLLWSFYVYNSTFAHMMGAAFENKENAATIGYLLFALCLIFCGVLATKEDMPHFWIFMYRVSPLTYLISGLLSAGVGETRVECTDNELVLFKPMNGTNCGKYMHPFMEGLGHTDMPMGYLVDPSATDMCGYCPISNTNGYLDQIDVKYSQRWRNYGILFAYPAFNVFMAFAFYYIFRVPKKSRKQKA

Key:
ABC2 mRNA = test: Quantitative RT-PCR of ABC2 transcripts after alkane treatment; type: cell-based; details: Y. lipolytica CLIB122, 24 h alkane treated vs. untreated, normalized to actin, p<0.05
Excerpt: FIG. 3. mRNA transcripts levels of ABC2 and ABC3 in Y. lipolytica. Quantitative RT-PCR analysis of ABC2 (A) and ABC3 (B) in Y. lipolytica cells corresponding to treatment with octane, nonane, decane, undecane and dodecane (C8-C12). Each value of qRT-PCR was normalized to β-actin expression levels and expressed as the fold change relative to the levels detected in control samples, which were cells without alkane treatment and set equal to 1. Error bars represent the SD of triplicate.
To assess whether ABC1, ABC2, ABC3 and ABC4 are involved in alkane transport in Y. lipolytica, we analysed the effects of alkanes with different chain length (C8-C12) on the transcription levels of these four ABC transporter genes using quantitative RT-PCR.
Total RNA samples from 24 h alkane treated and untreated Y. lipolytica CLIB122 cells were prepared using RNeasy Mini Kit (Qiagen), followed by cDNA synthesis using H minus Reverse transcriptase kit (Fermentas). Quantitative RT-PCR analysis was performed on a Bio-Rad iQ5 real-time PCR detection system using SsoFast EvaGreen Supermix kit (Bio-Rad). The actin gene (YALI0D08272g) was used as reference gene for Y. lipolytica. Relative mRNA levels were derived using comparative CT method.

S. cerevisiae BY4741 [1] = test: Alkane susceptibility test in liquid culture; type: cell-based, Saccharomyces cerevisiae; details: for decane tolerance increase: cells expressing the transporter vs. control (0.25% decane), OD600; for survival in 20% undecane / decane concentration tolerated: cells expressing the transporter; for decane concentration tolerated: control 0.25% decane
Experimental: (§1) FIG. 2. Alkane susceptibility test for S. cerevisiae. The alkane susceptibility was tested in cells expressing ABC2/3 or with empty plasmid. (A) Alkane susceptibility test on agar plate. Serial dilutions of cells expressing ABC2/3 were spotted on agar plates with alkanes (decane, undecane) as vapour phase. Plates were incubated at 28° C. for 2 days. (B) Alkane susceptibility test in liquid culture. Overnight cell culture was diluted into induction medium (final OD600=0.4) with different alkanes (decane & undecane) concentrations. The plates were incubated for 48 hr at 28° C. The OD600 value of each sample was determined and plotted against its corresponding alkane concentration. Symbols for strains are: control sample with empty plasmid (open circle), cells expressing ABC2 (filled circle), cell expressing ABC3 (filled triangle).
Overnight culture was diluted into 5 ml induction medium in 50 ml glass bottle (Sigma) at an initial OD600 of 0.4. Alkanes were added as different final concentration. Bottles were sealed tightly with butyl rubber stopper (Sigma) and silver aluminum seal (Sigma). Liquid culture was performed at 28° C. with shaking. Growth was monitored by measuring the OD600 at different time point. Cell culture used for time point OD checking was collected from the glass bottle using needle and syringe.
To further analyze the effect of ABC2 and ABC3 toward decane and undecane, alkane susceptibility tests in liquid culture were conducted. […] With the expression of ABC2, decane tolerance was boosted about 80-fold (20% vs. 0.25% decane) and cells can survive in 20% undecane. For ABC3, decane tolerance is increased slightly by about 3-fold (0.75% vs. 0.25% decane) and cells are resistant to 20% undecane. It is apparent that the expression of ABC2 and ABC3 transporters improved the tolerance toward C10 and C11 alkanes.

S. cerevisiae BY4741 [2] = test: Alkane susceptibility test on agar plate; type: cell-based, Saccharomyces cerevisiae; details: cells expressing the transporter, 28° C., 2 days; for cell tolerance toward decane: decane as vapour phase; for cell tolerance toward undecane: undecane as vapour phase
Experimental: as §1
Alkane susceptibility test on plates was performed according to the methods of Mauersberger et al.. Exponentially growing cells in induction medium were centrifuged and re-suspended with induction medium at OD600=1. Ten microliter aliquots of successive 10-fold dilutions (non diluted, 10-1, 10-2, 10-3) of cells were spotted onto the induction medium plate. Medium chain alkanes were supplied as vapour phase by placing 200 μl alkane on a sterile filter paper in the lid of the petri dish. Plates were incubated at 28° C. for 2 days.
Toxicity test was implemented to study the effect of ABC2 and ABC3 on the tolerance of the cells toward alkanes. The toxic effects of alkanes on S. cerevisiae with ABC2 and ABC3 were measured through alkane susceptibility test on agar plates. […] It was observed that the expression of ABC2 would lead higher tolerance toward decane than ABC3.

S. cerevisiae BY4741 [3] = test: Intracellular alkane accumulation (GC-FID) in cells expressing ABC2/3; type: cell-based, Saccharomyces cerevisiae; details: S. cerevisiae BY4741 expressing the transporter, 48 h, control with empty plasmid; for lower intracellular decane level relative to the control: 0.5% decane; for reduction of intracellular undecane level compared to the control sample: 20% undecane
Experimental: FIG. 1. Intracellular alkane accumulation by ABC2 and ABC3. S. cerevisiae BY4741 with and without ABC2/3 were cultured under exposure of 0.5% alkane or 20% undecane. After 48 h incubation, intracellular alkane levels were measured. Intracellular alkane levels were normalized to that of control carrying empty plasmid. Data shown are the mean±SD of four biological replicates.
Intracellular alkane accumulation was analysed with GC-FID after 48 h incubation with 0.5% decane or 20% undecane.
After induction for 48 h with or without addition of alkanes, S. cerevisiae cells transformed with pYES2, pYES2ABC2 and pYES2ABC3 were harvested at 6000 g for 5 min at 4° C. After washing with 50 mM Tris.Cl, cells were equally divided into two parts, one part for alkane GC analysis and the other for determination of total protein concentration. For GC analysis, cell pellets were re-suspended in freshly prepared Chloroform/Methanol (v/v, 2:1). Dodecane was added into cell suspension as an internal standard. Acid-washed glass beads were added until the suspension was covered. Cells were then lysed by mechanical agitation using FastPrep-24 (MPBio) for 6 min at 6 m/s. The crude extract was obtained by pipette. After addition of autoclaved ddH2O, the crude extract was emulsified for 10 min by inversion. After centrifuge, the crude extract was separated into two phases. The bottom phase containing alkane was transferred into a new 1.5 ml microcentrifuge tube and purified as above with HPLC grade chloroform and autoclaved ddH2O until particulate matter was no longer observable. The purified solution was transferred into a clear GC vial for GC analysis. To check the total protein concentration, Cell pellets were re-suspended into 50 mM Tris.Cl and lysed via mechanical agitation with acid-washed glass beads using FastPrep-24 for 6 min at 6 m/s. Protein concentration of obtained crude extract was determined using the Bradford protein assay (Bio-Rad). Intracellular alkane levels were normalized to internal standard and cell lysate protein content.

| Molecule | mRNA levels of ABC2 (ABC2 mRNA) | alkane concentration causing a significant decrease in viability of the control cells (S. cerevisiae BY4741 [1]; control cells with empty plasmid, 48 hr, 28° C.) [%] | cell tolerance toward decane (S. cerevisiae BY4741 [2]) | cell tolerance toward undecane (S. cerevisiae BY4741 [2]) | lower intracellular decane level relative to the control (S. cerevisiae BY4741 [3]) [fold] | reduction of intracellular undecane level compared to the control sample (S. cerevisiae BY4741 [3]) | decane tolerance increase (S. cerevisiae BY4741 [1]; 48 hr, 28° C.) | survival in 20% undecane (S. cerevisiae BY4741 [1]) | decane concentration tolerated (S. cerevisiae BY4741 [1]; 48 hr, 28° C.) [%] |
| --- | --- | --- | --- | --- | --- | --- | --- | --- | --- |
| CCCCCCCCCCC [undecane] | significantly increased | 20 |  |  |  |  |  |  |  |
| CCCCCCCC [octane] | significantly increased |  |  |  |  |  |  |  |  |
| B1 |  |  | considerably improved | considerably improved | ~5 | approximately 30 fold | about 80 fold | can survive | 20 |
| B2 |  |  | considerably improved | considerably improved | ~5 | approximately 30 fold | about 3 fold | resistant | 0.75 |
